# From PMC6293278
# Target: Taxol-stabilized microtubules (polymerized purified tubulin) (UniProt P02550)
# Assay: Taxol-stabilized microtubule co-sedimentation assay
# Details: 3:1 MT:MAP1S LC ratio; MAP1S LC pre-incubated with CDKL5 (WT according to the lane labels of panel E; the key of panel F prints CDKL5 KD); n = 3 technical …; parent: est. 13; read off a plot
substance,measurement,value
Strep(II)-MAP1S LC WT (microtubule-associated protein 1S light chain) (from UniProt P0C5W1) S786A; S812A,other: Soluble MAP1S LC (%),4.2%
